Literature values, collected in PMC12073169.

Biological target: ATG3 (Homo sapiens) (UniProt Q9NT62)
Sequence of UniProt Q9NT62 (Q9NT62 whole entry): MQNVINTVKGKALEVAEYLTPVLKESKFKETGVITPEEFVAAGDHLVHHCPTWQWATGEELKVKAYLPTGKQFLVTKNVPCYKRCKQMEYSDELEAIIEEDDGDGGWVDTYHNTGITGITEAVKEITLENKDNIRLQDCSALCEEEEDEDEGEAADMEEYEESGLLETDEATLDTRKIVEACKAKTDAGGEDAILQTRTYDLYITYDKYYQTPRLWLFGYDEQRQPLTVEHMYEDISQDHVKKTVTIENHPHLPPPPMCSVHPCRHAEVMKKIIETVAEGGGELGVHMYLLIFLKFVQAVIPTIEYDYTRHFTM

Kd: 350 nM
Substance: ATG7 (from UniProt O95352)
